Article PMC9232890

Target: NIST mAb
Assay: AUC

NIST mAb (antibody)
3%: amount of dimer (%), fit of 20 scans | amount of dimer (%), fit of 50 scans | amount of dimer (%), fit of 100 scans | amount of dimer (%), fit of 250 scans
